Earlier results on two substances are cited in article PMC2994244.

Where two headings read alike, the source gives them in different places.

Series [1] deals with ACP (Escherichia coli) (UniProt P0A6A8).
For series [2] the target is unchanged. The source holds these as a separate data set.

Sequence of UniProt P0A6A8 (P0A6A8 2-78): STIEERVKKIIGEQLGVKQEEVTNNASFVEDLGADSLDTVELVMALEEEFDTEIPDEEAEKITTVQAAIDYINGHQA

Broadly, the Kd is the free concentration of one partner at which half of the binding sites on the other are occupied at equilibrium, for simple one-to-one binding. On to KASI (from UniProt P0A953), for which, in the series with ACP (Escherichia coli) [1], the Kd was 180 nM. For KASII (from UniProt P0AAI5), the Kd in the series with ACP (Escherichia coli) [2] was 70 nM.
